The record followed here is patent US20160312212A1, “COW ANTIBODY SCAFFOLD POLYPEPTIDE METHOD AND COMPOSITION” (Roche Sequencing Solutions, Inc., priority 2015, published 2016).

This experiment addresses Biotinylated Human Thrombin (human) (UniProt P00734). Description: mRNA display selection on biotinylated human thrombin, round 2; NGS read frequency.

“mRNA-displayed cow antibody scaffold polypeptide with cassette RTKIK*NGL* (designed binder)” gave a counts of 86 counts and a percentage (%) of 0.0052%.
